These results are taken from the supplement of paper PMC10567573.

± gives the standard deviation.

This data set is described as follows: protein stability index of a GFP-peptide fusion (GPS, HEK-293T) (PSI 1-6); higher = more stable. The settings on record: c terminus: a fixed tail appended.
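Note: 24-mer peptide tiles fused after GFP, lentivirally expressed, FACS-sorted into six equal bins by GFP/DsRed ratio, decoded by Illumina sequencing, PSI is the read-weighted mean bin number.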

With AAARAAQRRRRVENAGGSPSPEPA [RSAD1], the protein stability index amounted to 5.25 ± 0.087 (treatment: DMSO) and 5.12 ± 0.44 (treatment: MLN4924 1 uM, 8 h).

With AARSPQGLGASTAEISARTMQSMF [PTPRD], the protein stability index came out at 3.38 ± 0.26 (treatment: DMSO) and 3.29 ± 0.34 (treatment: MLN4924 1 uM, 8 h).

For the sequence AASISDGDCDAREEKQRELARKGS [FAM219A], the protein stability index by setting is: (treatment: DMSO) 5.54 ± 0.2; (treatment: MLN4924 1 uM, 8 h) 5.52 ± 0.2.

Regarding AATQALPQDSGTAAWKGRVLLPET [C22orf31], the protein stability index was found to be 4.11 ± 0.062 (treatment: DMSO) and 4.1 ± 0.24 (treatment: MLN4924 1 uM, 8 h).

Regarding AAVKAAREAFPSWSSRSPQERSRV [ALDH8A1], the protein stability index runs as follows: (treatment: DMSO) 3.73 ± 0.23; (treatment: MLN4924 1 uM, 8 h) 3.88 ± 0.48.

Regarding ACALLLTSVDHDRAPVVGVRVNVL [DLC1], the protein stability index by setting is: (treatment: DMSO) 2.33 ± 0.32; (treatment: MLN4924 1 uM, 8 h) 2.68 ± 0.36.

Turning to ACRFQEDQEMARDLVERALYSMEC [TCF25], the protein stability index is, setting by setting: (treatment: DMSO) 2.34 ± 0.57; (treatment: MLN4924 1 uM, 8 h) 2.49 ± 0.53.

In the case of ADWAVMDVVNYFRTVGFEEQASAF [SAMD13], the protein stability index is 2.21 ± 0.3 (treatment: DMSO) and 2.59 ± 0.19 (treatment: MLN4924 1 uM, 8 h).

On to AECALVSLKEAEFYDKQLKVLLSG [ZFYVE21], for which the protein stability index runs as follows: (treatment: DMSO) 2.86 ± 0.24; (treatment: MLN4924 1 uM, 8 h) 3.05 ± 0.48.

Turning to AEGDSWEEEGFGSSSPVKSPAAPY [WEE1], the protein stability index runs as follows: (treatment: DMSO) 5.28 ± 0.13; (treatment: MLN4924 1 uM, 8 h) 5.19 ± 0.22.

As for AEGRTGFPWIDAIMTQLRQEGWIH [CRY1], the protein stability index runs as follows: (treatment: DMSO) 2.35 ± 0.3; (treatment: MLN4924 1 uM, 8 h) 2.13 ± 0.33.

As for AEMAEDYPRYPDIHDLDLTLLNPR [CLCN6], the protein stability index amounted to 4.05 ± 0.28 (treatment: DMSO) and 4.21 ± 0.25 (treatment: MLN4924 1 uM, 8 h).

For AESHASKDVAIDMMDSRTSQQLQL [STX5], the protein stability index is 4.98 ± 0.11 (treatment: DMSO) and 4.89 ± 0.18 (treatment: MLN4924 1 uM, 8 h).

AFGKICHMVSDGSWVVRVQAAKLL [INTS4]: the protein stability index came out at 2.74 ± 0.49 (treatment: DMSO) and 2.88 ± 0.58 (treatment: MLN4924 1 uM, 8 h).

In the case of AGFDALQGDPKGEMAATPAGFAQL [HDAC6], the protein stability index reads like this: (treatment: DMSO) 4.37 ± 0.21; (treatment: MLN4924 1 uM, 8 h) 4.09 ± 0.36.

Turning to AGGRVFVLPCIQQIQRISLNTLTL [FLOT1], the protein stability index came out at 2.96 ± 0.57 (treatment: DMSO) and 2.93 ± 0.59 (treatment: MLN4924 1 uM, 8 h).

As for AGLSLLSPSVMRLVHTQEPGEWLE [ALKBH7], the protein stability index runs as follows: (treatment: DMSO) 2.71 ± 0.38; (treatment: MLN4924 1 uM, 8 h) 2.79 ± 0.24.

For AHLGEEAHKCLECGKCFSQNTHLT [ZNF263], the protein stability index runs as follows: (treatment: DMSO) 3.45 ± 0.34; (treatment: MLN4924 1 uM, 8 h) 3.55 ± 0.48.

For the sequence AIFDAGTLGGELGALEALELSPPL [FOXJ1], the protein stability index is, setting by setting: (treatment: DMSO) 3.26 ± 0.23; (treatment: MLN4924 1 uM, 8 h) 3.31 ± 0.31.

As for AIHGYTVWAHNLIAIARLRGSDLK [FBXO33], the protein stability index is, setting by setting: (treatment: DMSO) 3.13 ± 0.8; (treatment: MLN4924 1 uM, 8 h) 2.46 ± 0.42.

In the case of AIPEAIGFVMVPFEYRGEQHKTCM [EDNRA], the protein stability index was 2.36 ± 0.32 (treatment: DMSO) and 2.31 ± 0.27 (treatment: MLN4924 1 uM, 8 h).

For AIYFTAYDQLKAFLCGRALTSDLY [SLC25A39], the protein stability index was 3.35 ± 0.83 (treatment: DMSO) and 3.37 ± 0.57 (treatment: MLN4924 1 uM, 8 h).

As for ALAIKVNLCGHWYYSKACCRSCRP [ADAMTSL2], the protein stability index is, setting by setting: (treatment: DMSO) 2.43 ± 0.38; (treatment: MLN4924 1 uM, 8 h) 2.77 ± 0.62.

Regarding ALDERAKVLHEDKQTREQLHSISD [TRIM29], the protein stability index is, setting by setting: (treatment: DMSO) 5.25 ± 0.27; (treatment: MLN4924 1 uM, 8 h) 5.31 ± 0.37.

Consider ALKDNKSPLHLVQMPPVIVETARS [PI4K2A], for which the protein stability index runs as follows: (treatment: DMSO) 3.8 ± 0.29; (treatment: MLN4924 1 uM, 8 h) 3.82 ± 0.29.

In the case of ALKEKEKASWSSLSMDEKVELYRI [COX4I1], the protein stability index is 3.65 ± 0.27 (treatment: DMSO) and 3.95 ± 0.23 (treatment: MLN4924 1 uM, 8 h).

For the sequence ALRAAEVWMDDFKSHVYMAWNIPM [GALNT9], the protein stability index was found to be 2.35 ± 0.8 (treatment: DMSO) and 2.24 ± 0.71 (treatment: MLN4924 1 uM, 8 h).

For ALRERWLLEGTPSSASEGDEDLRR [PALM], the protein stability index is, setting by setting: (treatment: DMSO) 5 ± 0.25; (treatment: MLN4924 1 uM, 8 h) 5.14 ± 0.21.

Consider ALRGAAVDEYFRQPVVDTFDIRIL [CARM1], for which the protein stability index reads like this: (treatment: DMSO) 2.48 ± 0.45; (treatment: MLN4924 1 uM, 8 h) 2.6 ± 0.27.

As for ALRVQQLVAKELGQTGTRLTPADK [AUP1], the protein stability index was found to be 4.04 ± 0.18 (treatment: DMSO) and 4.16 ± 0.14 (treatment: MLN4924 1 uM, 8 h).

Consider ALYVQAPTVTIEGFLQALSLAVDK [TRIP13], for which the protein stability index stood at 2.09 ± 0.46 (treatment: DMSO) and 2.2 ± 0.17 (treatment: MLN4924 1 uM, 8 h).

AMEPEPAPAPAPEEWLDILGNGLL [FKBP8] returned a protein stability index (treatment: DMSO) of 4.47 ± 0.1 and a protein stability index (treatment: MLN4924 1 uM, 8 h) of 4.59 ± 0.41.

AMYIDTEGTFRPERLLAVAERYGL [RAD51]: the protein stability index is 2.37 ± 0.19 (treatment: DMSO) and 2.39 ± 0.27 (treatment: MLN4924 1 uM, 8 h).

ANETLAEMEEELRYAPLSFRNPMM [VTI1B]: the protein stability index worked out at 2.42 ± 0.63 (treatment: DMSO) and 3.01 ± 0.56 (treatment: MLN4924 1 uM, 8 h).

Regarding ANLTPNVGGYFVDKFVATMYHYLQ [P3H4], the protein stability index by setting is: (treatment: DMSO) 2.38 ± 0.69; (treatment: MLN4924 1 uM, 8 h) 2.23 ± 0.32.

Take ANYTCVAMSTLGVIEAIAQITVKA [PTPRD]: the protein stability index is, setting by setting: (treatment: DMSO) 2.63 ± 0.16; (treatment: MLN4924 1 uM, 8 h) 3.29 ± 0.93.
